{
  "source": "patent US20230050148A1",
  "about": "“TGF-BETA INHIBITORS AND USE THEREOF” (SCHOLAR ROCK, INC., priority 2020, published 2023)",
  "molecules": {"B1": {"name": "Ab6-mIgG1: chimeric antibody with the human V domains of Ab6 fused to mouse IgG1/kappa constant domains (protein)", "heavy chain": "EVQLVESGGGLVQPGGSLRLSCTASGFTFSSFSMDWVRQAPGKGLEWVSYISPSADTIYYADSVKGRFTISRDNAKNTLYLQMNSLRAEDTAVYYCARGVLDYGDMLMPWGQGTLVTVSS", "light chain": "DIQMTQSPSSLSASVGDRVTITCQASQDITNYLNWYQQKPGKAPKLLIYDASNLETGVPSRFSGSGSGTDFTFTISSLQPEDIATYYCQQADNHPPWTFGGGTKVEIK"}, "B2": {"name": "Ab6 Fab: Fab fragment of Ab6 used as analyte in SPR and in HDX-MS (antibody, V domains shown)", "VH": "B1 heavy chain", "VL": "B1 light chain"}},
  "key": {"[1]": {"tested_on": "Cloudman S91 tumors", "assay": "Cloudman S91 melanoma model", "type": "in vivo, DBA/2 mouse", "details": "dose range 3, 10 and 30 mg/kg", "protocol": "Clone M3 [Cloudman S91 melanoma] (ATCC® CCL-53.1™) cells were obtained from the American Type Culture Collection (ATCC), and were maintained at CR Discovery Services as exponentially growing suspension cultures in Kaighn's modified Ham's F12 Medium supplemented with 2.5% fetal bovine serum, 15% horse serum, 2 mM glutamine, 100 units/mL penicillin G sodium, 100 μg/mL streptomycin sulfate and 25 μg/mL gentamicin. The tumor cells were grown in tissue culture flasks in a humidified incubator at 37° C., in an atmosphere of 5% CO2 and 95% air.\nWhen tumors reached a volume of 125-175 mm^3 mice were randomized into groups of 12 with identical mean tumor volumes and dosing began.\nGroup 1 received anti-PD-1 antibody only. […] An untreated control was used, data not shown.\nPercent tumor growth delay (% TGD) is defined as the increase in the median time to endpoint in a treatment group compared to the untreated control, expressed as a percentage of the median time to endpoint (TTE) of the control: • T=median TTE for treatment • C=median TTE for control\nResults are summarized below (see FIGS. 9, 11 & 12).\n(§1) All antibodies were dosed intraperitoneally."}, "[2]": {"tested_on": "MBT2 tumors", "assay": "MBT2 syngeneic bladder cancer model, efficacy", "type": "in vivo, C3H/HeN mouse", "protocol": "Group 1 received anti-PD-1 antibody only. […] An untreated control was used, not shown.\nas §1"}, "[3]": {"tested_on": "intratumoral immune cells in MBT2 tumors", "assay": "MBT2 tumor immune contexture (flow cytometry, IHC, qPCR)", "type": "in vivo, mouse", "details": "MBT-2", "source_text": "To study the immune effects of anti-PD-1 or Ab6-mIgG1 treatment as single agents or in combination, MBT-2 tumors were harvested from mice 10 days after treatment initiation and then subjected to immunohistochemical and flow cytometry analyses of select immune cell markers. […] The relevance of this increase in Treg cells is unclear given the significant anti-tumor effects observed with combination treatment. […] This appears to be due to selective reduction in CD11 b+CD206+ and CD11 b+Gr1+ subpopulations, which correspond to immunosuppressive M2-like macrophages and myeloid-derived suppressor cells (MDSC), respectively. Collectively, the representation of these two populations of cells is reduced from an average of 47% of the CD45+ cell population to 14% after combination treatment (FIG. 28B).\nEach study group contained 12 mice with MBT2 tumors as described herein. […]\nFlow cytometric analysis: Tumor-associated immune cell subsets were also analyzed by tumor flow cytometry in MBT-2 tumors. […] Flow cytometry was performed on a Attune NxT (ThermoFisher) and analyzed with FlowJo (BD Bioscience).\nFor immunohistochemical analysis, tumors from six animals were cut in halves and fixed. […] FIG. 30E provides the quantitation of the IHC data, shown as % of CD8-positive cells of total nuclei. […]"}, "[4]": {"tested_on": "EMT6 tumors", "assay": "EMT-6 syngeneic breast carcinoma model", "type": "in vivo, BALB/c mouse", "details": "dose 10 mg/kg", "protocol": "EMT6 tumors were implanted subcutaneously. Treatment began when EMT6 tumors reached 30-80 mm^3. Anti-PD-1 was dosed at 10 mkg twice weekly. […] Anti-TGFβ3 neutralizing antibody was dosed at 30 mkg once weekly.\nResponders are defined as those achieving tumor size of <25% of the endpoint volume at study end.\nas §1"}, "[5]": {"assay": "first-in-human dose selection (allometric scaling, PAD, safety factors)", "details": "S91, MBT-2, EMT-6 models, with anti-PD-1", "protocol": "In vivo pharmacology data was utilized to predict the human pharmacological active dose (PAD) and recommended the FIH dose. In addition, safety margins were determined between the predicted exposure at the recommended FIH dose and the exposure achieved at the NOAELs in toxicology studies."}, "[6]": {"details": "mouse, in vivo, iv", "quoted_text": "Pharmacokinetics studies were conducted in female C57BL/6 mice, SD rats, and cynomolgus monkeys. […] A non-GLP single-dose PK study was performed in C57BL/6 mice (10-11 weeks) at Gateway Pharmacology Laboratories in Chesterfield, Mo. Additional pharmacokinetic and toxicology studies were conducted in naive young adult Sprague Dawley rats (7-10 weeks) and cynomolgus monkeys (2-4 years).\nThe lower limit of quantitation (LLOQ) for the non-GLP assays were 125, 125, and 250 ng/mL for the mouse, rat, and cynomolgus monkey, respectively; and 75 ng/mL for the optimized and validated GLP assays (rat and monkey). The absorbance-versus concentration relationship was regressed using a 4-parameter logistic curve fit (with a weighting factor of 1/Y2 for the validated assays to support the toxicokinetic studies), and concentrations were calculated using GraphPad Prism or Watson LIMS (Thermo, Pennsylvania, USA) data reduction software.\nFemale mice were group housed (3-5 mice/cage) in polycarbonate cages containing appropriate bedding and water valves in a controlled environment (17.8-26.7° C.; 30-70% relative humidity; 12-hour light and dark cycles) and were offered standard rodent chow (PicoLab Rodent Diet 20) and tap water ad libitum. Mice were randomly assigned to treatment groups for all studies.\nPK parameters were calculated in Phoenix® WinNonlin® (Certara USA Inc.) from the concentration-time data using a noncompartmental analysis method with intravenous (IV) bolus input. Nominal doses and sampling times were used. […] Area under the concentration time curve (AUC) was computed using the linear trapezoidal approximation method. Terminal half-life (t1/2) was estimated by log-linear regression of the terminal phase of the mean concentration versus time profiles. At least 3 points clearly visible in the terminal phase, an r^2 value of at least 0.8, and time interval of at least 3 half-lives (in the GLP toxicity studies only) were required to characterize half-life."}, "[7]": {"molecular_target": "T1, human GARP-ProTGFb1 (Homo sapiens, UniProt P01137)", "T1 construct": "made in house", "T1 sequence (P01137 30-390)": "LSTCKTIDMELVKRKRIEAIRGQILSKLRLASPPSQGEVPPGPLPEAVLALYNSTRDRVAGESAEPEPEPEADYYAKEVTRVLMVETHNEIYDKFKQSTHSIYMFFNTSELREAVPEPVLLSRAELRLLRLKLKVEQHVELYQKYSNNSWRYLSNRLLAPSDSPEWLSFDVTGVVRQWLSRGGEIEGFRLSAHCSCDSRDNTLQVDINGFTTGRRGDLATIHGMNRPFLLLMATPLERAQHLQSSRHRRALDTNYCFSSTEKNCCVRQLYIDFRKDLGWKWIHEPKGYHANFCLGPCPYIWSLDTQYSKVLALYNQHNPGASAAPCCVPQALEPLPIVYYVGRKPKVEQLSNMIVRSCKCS", "T1 sequence (Q14392 20-627 partner limits assumed)": "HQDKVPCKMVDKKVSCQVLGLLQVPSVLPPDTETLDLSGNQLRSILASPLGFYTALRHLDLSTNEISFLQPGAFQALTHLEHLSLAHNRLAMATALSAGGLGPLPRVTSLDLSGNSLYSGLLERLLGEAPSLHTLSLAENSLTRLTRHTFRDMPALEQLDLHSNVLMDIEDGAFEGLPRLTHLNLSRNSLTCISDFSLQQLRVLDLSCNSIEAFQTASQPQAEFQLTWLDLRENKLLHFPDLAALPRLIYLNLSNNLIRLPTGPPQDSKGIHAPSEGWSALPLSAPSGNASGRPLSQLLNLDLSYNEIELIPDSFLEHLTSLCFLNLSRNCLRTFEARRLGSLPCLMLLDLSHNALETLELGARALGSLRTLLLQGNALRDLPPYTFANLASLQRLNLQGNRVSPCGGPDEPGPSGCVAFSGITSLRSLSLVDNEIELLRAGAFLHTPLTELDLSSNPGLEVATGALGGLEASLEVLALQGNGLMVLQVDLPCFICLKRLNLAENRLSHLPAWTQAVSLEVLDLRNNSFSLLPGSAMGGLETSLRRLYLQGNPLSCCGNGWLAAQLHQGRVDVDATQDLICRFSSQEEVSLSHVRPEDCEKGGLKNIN", "assay": "SPR (Biacore 8K) Fab binding kinetics", "details": "Fab 0.62-10 nM, 1:1 binding model", "protocol": "(§2) Briefly, the binding kinetics were evaluated by surface plasmon resonance using Biacore 8K (GE Healthcare). A Biotin CAP sensor chip was used to capture the biotinylated antigens. Fabs at various concentrations (0 nM, 0.62 nM, 1.25 nM, 2.5 nM, 5 nM and 10 nM) were injected over the captured antigens. Multi-cycle kinetics was employed where each analyte concentration was injected in a separate cycle and the sensor chip surface was regenerated after each cycle. All the assays were carried out in freshly prepared 1×HBS-EP+ buffer (10 mM HEPES, 150 mM NaCl, 3 mM EDTA, 0.05% Tween20, pH 7.4). Data for all the analyte concentrations for each interaction were fit globally to a 1:1 binding model to obtain the kinetic parameters. The Sensorgram for 0 nM analyte concentration was used as reference.\n(§3) Binding kinetics was evaluated by surface plasmon resonance using a Biacore 8K (GE) instrument. Biotinylated antigens were captured on a Biotin CAP chip and the Fab fragments of the antibodies were used as analytes. Sensorgrams for Fab binding at variable concentrations (0.6-10 nM) were globally fit to obtain the kinetic parameters. Binding kinetics for the Fabs were evaluated against each of the four human antigens, LTBP1-ProTGFb1, LTBP3-ProTGFb1, GARP-ProTGFb1, and LRRC33-ProTGFb1."}, "[8]": {"molecular_target": "T2, human LRRC33-ProTGFb1 (Homo sapiens, UniProt P01137)", "T2 construct": "made in house", "T2 sequence (P01137 30-390)": "as the sequence (P01137 30-390) above", "T2 sequence (Q86YC3 19-650 partner limits assumed)": "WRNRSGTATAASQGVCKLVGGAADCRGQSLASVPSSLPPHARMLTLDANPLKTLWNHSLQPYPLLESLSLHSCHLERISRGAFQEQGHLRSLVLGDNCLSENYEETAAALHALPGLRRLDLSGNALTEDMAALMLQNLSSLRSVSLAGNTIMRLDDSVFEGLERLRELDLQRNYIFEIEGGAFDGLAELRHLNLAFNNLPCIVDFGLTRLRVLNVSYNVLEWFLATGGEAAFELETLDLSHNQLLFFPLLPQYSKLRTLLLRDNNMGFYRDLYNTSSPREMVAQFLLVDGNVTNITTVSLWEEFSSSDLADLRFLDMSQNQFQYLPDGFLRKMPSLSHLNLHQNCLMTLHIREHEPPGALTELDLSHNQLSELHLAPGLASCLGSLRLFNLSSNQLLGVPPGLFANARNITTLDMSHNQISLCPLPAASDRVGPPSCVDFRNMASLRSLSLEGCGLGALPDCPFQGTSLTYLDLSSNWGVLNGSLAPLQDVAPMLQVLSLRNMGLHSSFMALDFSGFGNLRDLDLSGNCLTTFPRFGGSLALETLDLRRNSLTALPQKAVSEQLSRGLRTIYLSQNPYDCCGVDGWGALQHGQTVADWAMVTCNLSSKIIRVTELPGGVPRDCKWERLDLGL", "assay": "SPR (Biacore 8K) Fab binding kinetics", "details": "Fab 0.62-10 nM, 1:1 binding model", "protocol": "as §2, §3"}, "[9]": {"molecular_target": "T3, human LTBP1-ProTGFb1 (Homo sapiens, UniProt P01137)", "T3 construct": "made in house; host or cells: Expi293F cells, co-transfected with pTT5 plasmids", "T3 sequence (P01137 30-390)": "as the sequence (P01137 30-390) above", "T3 sequence (Q14766 873-1507 partner)": "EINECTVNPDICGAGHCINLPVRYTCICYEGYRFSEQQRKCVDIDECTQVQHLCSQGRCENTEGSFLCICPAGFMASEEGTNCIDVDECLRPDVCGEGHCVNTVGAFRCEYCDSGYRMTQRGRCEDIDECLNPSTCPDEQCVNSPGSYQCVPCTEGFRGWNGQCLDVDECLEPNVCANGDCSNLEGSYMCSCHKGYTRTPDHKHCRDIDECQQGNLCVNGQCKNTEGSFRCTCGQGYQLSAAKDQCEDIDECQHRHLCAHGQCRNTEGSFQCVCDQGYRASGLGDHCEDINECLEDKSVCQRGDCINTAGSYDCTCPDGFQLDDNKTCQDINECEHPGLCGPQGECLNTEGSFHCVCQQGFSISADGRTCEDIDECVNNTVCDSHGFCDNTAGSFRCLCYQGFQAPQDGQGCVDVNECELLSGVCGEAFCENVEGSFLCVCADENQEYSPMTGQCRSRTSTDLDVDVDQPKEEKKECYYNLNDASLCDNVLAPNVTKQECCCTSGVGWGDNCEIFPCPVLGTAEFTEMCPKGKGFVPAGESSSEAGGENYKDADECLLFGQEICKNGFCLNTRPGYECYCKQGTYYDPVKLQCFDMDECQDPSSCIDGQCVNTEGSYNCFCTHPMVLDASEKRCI", "assay": "SPR (Biacore 8K) Fab binding kinetics", "details": "Fab 0.62-10 nM, 1:1 binding model", "protocol": "as §2, §3"}, "[10]": {"molecular_target": "T4, human LTBP3-ProTGFb1 (Homo sapiens, UniProt P01137)", "T4 construct": "made in house; host or cells: Expi293F cells, co-transfected with pTT5 plasmids", "T4 sequence (P01137 30-390)": "as the sequence (P01137 30-390) above", "T4 sequence (Q9NS15 866-1039 partner limits assumed)": "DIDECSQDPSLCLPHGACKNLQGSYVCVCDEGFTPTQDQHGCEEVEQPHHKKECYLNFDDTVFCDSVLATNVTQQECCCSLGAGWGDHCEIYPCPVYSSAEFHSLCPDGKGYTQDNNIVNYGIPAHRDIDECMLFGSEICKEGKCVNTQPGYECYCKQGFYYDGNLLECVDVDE", "assay": "SPR (Biacore 8K) Fab binding kinetics", "details": "Fab 0.62-10 nM, 1:1 binding model", "protocol": "as §2, §3"}, "[11]": {"molecular_target": "T5, proTGFβ1 / latent TGFβ1 (Homo sapiens, UniProt P01137, C33S)", "T5 construct": "The small latent TGFβ complexes were expressed with an N-terminal His-tag; His-tag (N); made in house; host or cells: Expi293F cells", "T5 sequence (P01137 with tags, fused parts or gaps C33S)": "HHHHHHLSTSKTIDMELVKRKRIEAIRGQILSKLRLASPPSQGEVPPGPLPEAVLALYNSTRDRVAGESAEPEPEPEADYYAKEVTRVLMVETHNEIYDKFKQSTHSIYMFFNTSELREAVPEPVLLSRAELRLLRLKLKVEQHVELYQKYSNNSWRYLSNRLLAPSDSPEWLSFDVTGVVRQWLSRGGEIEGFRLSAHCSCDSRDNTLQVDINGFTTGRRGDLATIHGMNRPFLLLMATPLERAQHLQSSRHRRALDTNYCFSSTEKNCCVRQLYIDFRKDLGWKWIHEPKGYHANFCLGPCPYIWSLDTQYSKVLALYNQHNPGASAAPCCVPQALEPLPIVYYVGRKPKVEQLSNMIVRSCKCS", "assay": "HDX-MS epitope mapping", "details": "Fab binding", "source_text": "To gain initial insights into the inhibitory mechanism of action for the isoform-selective inhibitors of TGFβ1 activation, we performed Hydrogen-Deuterium Exchange Mass Spectrometry (H/DX-MS) analysis to identify possible sites of latent TGFβ1 interaction with the antibody. Hydrogen/Deuterium exchange mass spectrometry (HDX-MS) is a widely used technique for exploring protein conformation in solution. HDX-MS methodology is described in Wei et al., Drug Discov Today. 2014 January; 19(1): 95-102, incorporated by reference in its entirety herein. Briefly, HDX-MS relies on the exchange of the protein backbone amide hydrogens with deuterium in solution. […]\nAccurate mass and collision-induced dissociation in data-independent acquisition mode (MSE) and ProteinLynx Global Server (PLGS) 3.0 software (Waters Corp., Milford, Mass.) were used to determine the peptic peptides in the undeuterated protein samples analyzed on the same UPLC-ESI-QToF system used for H/DX-MS experiments. […] The relative deuterium incorporation of each peptide was determined by subtracting the weight-averaged centroid mass of the isotopic distribution of undeuterated control sample from that of the weight-averaged centroid mass of the isotopic distribution of deuterium-labeled samples at each labeling time point. […]"}},
  "note": "Read-outs that look alike come from different tables or passages of the source.",
  "data": [
    {"molecule": "B1", "values": [
      {"measurement": "PAD", "setting": "[1]", "result": 3, "unit": "mg/kg"},
      {"measurement": "tumor-free survivors", "setting": "[2]; MBT2, 3 mg/kg per week + anti-PD-1", "result": 21, "unit": "%"},
      {"measurement": "tumor-free survivors", "setting": "[2]; MBT2, 10 mg/kg per week + anti-PD-1", "result": 36, "unit": "%"},
      {"measurement": "PAD", "setting": "[2]; MBT-2, dose range 3 and 10 mg/kg", "result": 10, "unit": "mg/kg"},
      {"measurement": "pSmad3 staining in tumor vascular endothelium", "setting": "[3]", "result": "much diminished"},
      {"measurement": "PAD", "setting": "[4]", "result": 10, "unit": "mg/kg"},
      {"measurement": "pharmacologically active dose (range)", "setting": "[5]", "result": "3-10 mg/kg"},
      {"measurement": "Cmax (mean, range over dose groups)", "setting": "[6]", "result": "7400 to 664000", "unit": "ng/mL"},
      {"measurement": "AUC0-inf", "setting": "[6]; 3 mg/kg", "result": 4890, "unit": "µg·h/mL"},
      {"measurement": "AUClast", "setting": "[6]; 3 mg/kg", "result": 4710, "unit": "µg·h/mL"},
      {"measurement": "AUC0-inf", "setting": "[6]; 10 mg/kg", "result": 17800, "unit": "µg·h/mL"},
      {"measurement": "AUClast", "setting": "[6]; 10 mg/kg", "result": 17400, "unit": "µg·h/mL"},
      {"measurement": "AUC0-inf", "setting": "[6]; 30 mg/kg", "result": 64200, "unit": "µg·h/mL"},
      {"measurement": "AUClast", "setting": "[6]; 30 mg/kg", "result": 64100, "unit": "µg·h/mL"}
    ]},
    {"molecule": "B2", "values": [
      {"measurement": "koff", "setting": "[7]", "result": 0.000218, "unit": "s⁻¹"},
      {"measurement": "kon", "setting": "[7]", "result": "2.1e+06", "unit": "M⁻¹ s⁻¹"},
      {"measurement": "koff", "setting": "[8]", "result": 0.000123, "unit": "s⁻¹"},
      {"measurement": "kon", "setting": "[8]", "result": 845000, "unit": "M⁻¹ s⁻¹"},
      {"measurement": "koff", "setting": "[9]", "result": 0.000255, "unit": "s⁻¹"},
      {"measurement": "kon", "setting": "[9]", "result": "2.05e+06", "unit": "M⁻¹ s⁻¹"},
      {"measurement": "koff", "setting": "[10]", "result": 0.000831, "unit": "s⁻¹"},
      {"measurement": "kon", "setting": "[10]", "result": "1.7e+06", "unit": "M⁻¹ s⁻¹"},
      {"measurement": "regions on proTGFβ1 strongly protected from deuterium exchange", "setting": "[11]", "result": "three binding regions"}
    ]}
  ]
}
